Measured values as given in the Human Domainome abundance scans (Beltran et al. 2025).

B1: Gamma-crystallin C, residues 4 to 79; numbered along this chain, P07315 (parent)
chain: ITFYEDRAFQGRSYETTTDCPNLQPYFSRCNSIRVESGCWMLYERPNYQGQQYLLRRGEYPDYQQWMGLSDSIRSC

Variants of: B1
Test: abundance fitness (aPCA) (normalised: wild type 0, dead -1); higher = more abundant; growth selection in yeast, the domain comes from the species named
Details: Homo sapiens

Abundance fitness of substitutions, site by site:
R12: T 0.024 | V -0.039 | Y -0.022
S13: A -0.051 | C -0.058 | D -0.122 | E -0.104 | F -0.16 | G -0.024 | H -0.025 | I 0.028 | K 0.148 | L -0.157 | M -0.075 | Q 0.061 | R 0.03 | T -0.043 | V 0.058 | Y -0.271
Y14: A -0.024 | C -0.227 | D -0.895 | E -0.375 | F 0.114 | G -0.497 | H -0.117 | I 0.003 | K -0.163 | L -0.101 | M 0.423 | N -0.154 | P -0.922 | Q -0.27 | R -0.05 | S -0.042 | T -0.167 | V -0.216 | W 0.112
E15: A -0.113 | D -0.064 | G -0.072 | H 0.066 | I 0.066 | K 0.165 | M -0.013 | N 0.075 | P -0.072 | Q 0.026 | S 0.005 | V -0.073 | W 0.069 | Y -0.057
T16: A 0.074 | C 0.003 | D -0.215 | E -0.291 | F 0.084 | G -0.089 | H 0.007 | I -0.098 | K -0.011 | L 0.013 | M 0.074 | N -0.116 | P -0.342 | Q 0.027 | R -0.078 | S -0.034 | V 0.031 | W 0.012 | Y 0.202
T17: A -0.014 | C 0.054 | D -0.135 | E 0.046 | F -0.152 | I -0.227 | K -0.119 | L -0.089 | M -0.124 | N -0.24 | P -0.01 | Q 0.048 | R 0.034 | S -0.061 | V -0.006 | W -0.092
T18: A 0.09 | C -0.165 | D 0.169 | E -0.02 | F -0.014 | G -0.006 | I -0.031 | K -0.065 | L -0.023 | M -0.008 | N 0.049 | P -0.847 | Q -0.333 | R -0.168 | S 0.044 | V -0.03 | W 0.017
D19: A -0.086 | C -0.052 | E -0.063 | G -0.101 | H -0.074 | I -0.011 | L 0.042 | M -0.037 | P -0.35 | Q -0.032 | R -0.027 | T -0.135 | V -0.101 | W 0.059 | Y -0.187
C20: A 0.124 | D 0.169 | E -0.041 | F -0.211 | G -0.058 | K -0.243 | L -0.042 | M 0.068 | N 0.22 | P -0.64 | Q -0.027 | S 0.104 | T 0.019 | V -0.133 | W -0.103 | Y -0.079
P21: A -0.028 | C -0.119 | E -0.074 | F -0.161 | G 0.053 | H -0.164 | K 0.016 | L -0.023 | M 0.075 | N 0.112 | Q 0.016 | R -0.131 | S -0.19 | T 0.006 | W -0.05
N22: A -0.041 | C -0.123 | D -0.004 | E -0.1 | F 0.17 | G -0.158 | H -0.176 | K 0.064 | L 0.036 | Q -0.046 | R 0.016 | S 0.012 | T 0.097 | V 0.026 | W -0.19 | Y 0.079
L23: A -0.173 | E -0.617 | G -0.727 | I -0.059 | M 0.027 | N -0.676 | Q -0.959 | R -1.01 | S -0.39 | T -0.081 | V 0.005 | W -0.771
Q24: A -0.109 | C -0.131 | D 0.13 | E 0.125 | F -0.14 | G 0.027 | I -0.056 | K -0.048 | L 0.116 | P -0.308 | R 0.007 | S 0 | V 0.006 | W 0.034 | Y 0.011
P25: A -0.002 | C 0.227 | D 0.323 | E 0.086 | F -0.076 | G 0.032 | H -0.241 | I -0.174 | K 0.008 | L 0.021 | M 0.005 | N 0.048 | Q -0.05 | S 0.047 | T 0.199 | V 0.054 | Y -0.257
Y26: A 0.064 | D -0.179 | E -0.138 | F 0.033 | G 0.044 | H -0.082 | I 0.237 | K -0.047 | L 0.037 | M 0.078 | N 0.052 | P -0.046 | Q -0.077 | R -0.031 | S 0.045 | T -0.186 | V 0.046 | W -0.092
F27: A 0.124 | C -0.203 | D -1.02 | E -0.794 | G -0.186 | H -0.096 | I -0.144 | K -0.658 | L -0.09 | M 0.064 | N -0.315 | P -0.865 | R -0.269 | S -0.109 | T 0.079 | Y -0.468
S28: A -0.038 | C -0.117 | D 0.166 | E 0.093 | F 0.044 | G 0.042 | H -0.014 | I -0.017 | K 0.317 | L -0.082 | N 0.058 | P -0.115 | Q -0.057 | R -0.045 | V -0.03 | W -0.15 | Y -0.012
R29: A 0.085 | D -0.239 | E -0.021 | F 0.103 | M 0.096 | Q -0.117 | S 0.059 | T 0.101 | V -0.009 | W -0.053 | Y 0.024
C30: E -0.95 | F -0.176 | G -0.582 | I -0.1 | L -0.299 | P -0.079 | Q -0.713 | R -0.768 | S 0.03 | T -0.176 | W -0.58 | Y -0.472
N31: A -0.576 | G -0.069 | L -0.294 | R -0.013 | S -0.019 | T -0.056 | V -0.052
S32: A -0.101 | D -0.812 | F -1.09 | G -0.424 | H -0.642 | I -0.805 | K -0.953 | L -0.985 | P -0.857 | Q -0.916 | R -1.07 | W -0.889
I33: A 0.054 | C 0.074 | E -0.676 | F -0.057 | K -0.835 | M 0.191 | P -0.756 | Q -0.792 | R -0.883 | S -0.642 | T -0.494 | V -0.094 | W -0.776
R34: A 0.026 | C -0.107 | D -0.382 | E -0.373 | F -0.113 | G -0.593 | H -0.163 | L -0.077 | M -0.153 | P -0.827 | Q -0.041 | S -0.143 | T 0.047 | V -0.039 | W -0.045 | Y -0.098
V35: A -0.422 | C -0.291
